{"source": "paper PMC12344292", "about": "“Structural basis for membrane microdomain formation by a human Stomatin complex” (Nature Communications, 2025)", "target": "the molecule itself", "assay": "cryo-EM structure; single-particle analysis of native membrane vesicles holding ALFA-tagged Stomatin, isolated on ALFA Selector CE resin and eluted with 0.2 mM ALFA peptide; 20 mM K-HEPES pH 7.4, 300 mM KCl, 5 mM DTT; C16 then local C8 symmetry", "data": [{"protein": "human Stomatin (natural protein, UniProt P27105-1 1-288, looked up, Stomatin, human, UniProt P27105-1; full-length protein in its membrane environment; The final atomic model includes residues 14-18 and 29-278; The 16 identical chains adopt two alternating conformations (Conformer A and B); also called N-terminal ALFA-tagged human Stomatin; Stomatin complex; source: HEK293S GnTI- cells infected with BacMam baculovirus (pEG BacMam); isolated in native membrane …) MAEKRHTRDSEAQRLPDSFKDSPSKGLGPCGWILVAFSFLFTVITFPISIWMCIKIIKEYERAIIFRLGRILQGGAKGPGLFFILPCTDSFIKVDMRTISFDIPPQEILTKDSVTISVDGVVYYRVQNATLAVANITNADSATRLLAQTTLRNVLGTKNLSQILSDREEIAHNMQSTLDDATDAWGIKVERVEIKDVKLPVQLQRAMAAEAEASREARAKVIAAEGEMNASRALKEASMVITESPAALQLRYLQTLTTIAAEKNSTIVFPLPIDMLQGIIGAKHSHLG", "values": [{"measurement": "stoichiometry N", "result": 16}]}]}
